This note sets out measurements from publication PMC5408928.

For this experiment, the target named is yeast 80S ribosome (S. cerevisiae). Description: crystal structure.

“hypusinated eIF5A from Saccharomyces cerevisiae (from UniProt P23301 1-157) (natural protein)”: the eIF5A-occupancy refinement (%) is 97%.

The substance “unmodified eIF5A from S. cerevisiae (from UniProt P23301 1-157) (natural protein)” came in with an eIF5A-occupancy refinement (%) of 88%.
